Test results taken from US20200340042, “IN VITRO SELECTION FOR NUCLEIC ACID […]” (McMaster University, published 2020).

How the values were obtained:
[1] = biological target: T1, glutamate dehydrogenase (rGDH, recombinant) (Clostridium difficile, UniProt P27346 SEQ:1-421); experiment: pulldown; […]; 50 mM HEPES, 150 mM NaCl, 10 mM MgCl2, 5 mM KCl, 0.02% Tween-20, pH 7.2, 25 C; conditions: tags: His-tag; expressed in E. coli; Pro-Lab Diagnostics; chain copies: 6; label: 32P
T1 sequence: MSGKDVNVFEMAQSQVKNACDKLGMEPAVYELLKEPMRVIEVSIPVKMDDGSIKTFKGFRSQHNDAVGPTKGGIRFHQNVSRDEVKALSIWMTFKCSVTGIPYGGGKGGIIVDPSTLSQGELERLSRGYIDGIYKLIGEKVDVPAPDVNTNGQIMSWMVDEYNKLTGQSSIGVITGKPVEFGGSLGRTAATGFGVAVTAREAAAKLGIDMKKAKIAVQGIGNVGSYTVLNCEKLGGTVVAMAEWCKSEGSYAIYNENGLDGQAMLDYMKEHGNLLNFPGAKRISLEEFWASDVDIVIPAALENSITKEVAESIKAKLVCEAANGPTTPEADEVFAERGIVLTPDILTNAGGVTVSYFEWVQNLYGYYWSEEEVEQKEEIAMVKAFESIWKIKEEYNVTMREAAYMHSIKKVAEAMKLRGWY

[2] = biological target: T1, glutamate dehydrogenase (rGDH, …); experiment: pulldown; conditions: tags: His-tag; expressed in E. coli; Pro-Lab Diagnostics; chain copies: 6; label: 32P; linear
Experimental: 100 μL of 1× binding buffer containing 100 nM γ-[³²P]-labeled captamer candidates was first denatured at 90° C. for 10 min, followed by incubation at RT for 20 min. The pull-down assays were conducted in a total volume of 300 μL of 1× binding buffer containing 50 μL of bead-bound rGDH (final concentration ˜50 nM) and 100 μL of 100 nM captamer candidates for 30 min with gentle rotation. In parallel, negative controls consisting of the captamers incubated with uncoated beads were included. Following three washing steps, proteins and bound aptamers were eluted with 30 μL of elution buffer (20 mM Tris-HCl, 500 mM imidazole, pH 7.5) by shaking at 90° C. for 10 min. The resultant mixtures were then analyzed by 10% dPAGE, and quantified by Image Quant software. […] Pull-down assays were conducted in a total volume of 300 μL of 1× binding buffer containing 10 μL of bead-bound rGDH (final concentration ˜9.2 nM) and 100 μL of aptamers with serial dilutions for 30 min with gentle rotation. Following washing steps, the bound DNA was then analyzed by 10% dPAGE. […]
The inventors measured the dissociation constant (Kd) for Capt-2 and Capt-4 using the same pull-down assay, along with their linear counterparts, Lapt-2 and Lapt-4 (FIG. 2b). […]

[3] = biological target: T1, glutamate dehydrogenase (rGDH, …); experiment: pulldown; competes with Anti-G1, Anti-G3, Anti-G7; conditions: tags: His-tag; expressed in E. coli; Pro-Lab Diagnostics; chain copies: 6; label: 32P; linear
[4] = biological target: T1, glutamate dehydrogenase (rGDH, …); experiment: pulldown; competes with Anti-G1T1, same epitope; conditions: tags: His-tag; expressed in E. coli; Pro-Lab Diagnostics; chain copies: 6; label: 32P; linear
[5] = biological target: T2, glutamate dehydrogenase (nGDH, native) (Clostridium difficile, UniProt P27346 SEQ:1-421); experiment: FP filter; paper filter binding; binding buffer with 10 mM MgCl2, 1% BSA; conditions: tags: Pro-Lab Diagnostics; chain copies: 6 stated; label: 32P
T2 sequence: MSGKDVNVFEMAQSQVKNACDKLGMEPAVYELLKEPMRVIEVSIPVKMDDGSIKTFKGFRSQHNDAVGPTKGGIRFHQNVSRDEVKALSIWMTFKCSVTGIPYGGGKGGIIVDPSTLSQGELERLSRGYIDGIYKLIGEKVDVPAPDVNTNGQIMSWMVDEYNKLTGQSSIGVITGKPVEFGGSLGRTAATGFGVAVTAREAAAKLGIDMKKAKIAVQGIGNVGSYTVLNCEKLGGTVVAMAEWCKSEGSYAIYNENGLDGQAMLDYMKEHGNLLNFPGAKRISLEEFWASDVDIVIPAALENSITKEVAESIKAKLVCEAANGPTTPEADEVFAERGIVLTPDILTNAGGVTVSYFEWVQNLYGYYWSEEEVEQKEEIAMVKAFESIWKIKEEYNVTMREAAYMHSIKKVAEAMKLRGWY

toxin A (TcdA) = toxin A (TcdA) (Clostridium difficile, UniProt P16154 SEQ:1-2710)
toxin B (TcdB) = toxin B (TcdB) (Clostridium difficile, UniProt P18177 SEQ:2-2366)
[6] = biological target: bovine serum albumin (BSA) (UniProt P02769 P02769:25-607)
[7] = biological target: T1, glutamate dehydrogenase (rGDH, …); experiment: pulldown; 10 mM MgCl2, 150 mM NaCl, pH 7.2, 25 C; epitope distinct from aptamer 2; conditions: tags: His-tag; expressed in E. coli; Pro-Lab Diagnostics; chain copies: 6; label: 32P
Experimental: (§1) Following three washing steps, proteins and bound aptamers were eluted with 30 μL of elution buffer (20 mM Tris-HCl, 500 mM imidazole, pH 7.5) by shaking at 90° C. for 10 min. The resultant mixtures were then analyzed by 10% dPAGE, and quantified by Image Quant software. […] Pull-down assays were conducted in a total volume of 300 μL of 1× binding buffer containing 10 μL of bead-bound rGDH (final concentration ˜9.2 nM) and 100 μL of aptamers with serial dilutions for 30 min with gentle rotation. Following washing steps, the bound DNA was then analyzed by 10% dPAGE. The apparent dissociation constants (Kd) of each aptamer candidate were obtained by fitting the fractional bound DNA to the total aptamer concentration using a one-site binding model.
(§2) The inventors measured the dissociation constant (Kd) for Capt-2 and Capt-4 using the same pull-down assay, along with their linear counterparts, Lapt-2 and Lapt-4 (FIG. 2b). […] The structural prediction with the m-fold program (http: //unafold.rna.albany.edu/?q=mfold) also provides a good rationale for the functionality of aptamer 2 in both circular and linear configurations, as the random-sequence nucleotides are predicted to form the same structural elements in both forms (FIG. 9). […]

[8] = biological target: T1, glutamate dehydrogenase (rGDH, …); experiment: pulldown; 10 mM MgCl2, pH 7.2, 25 C; no detectable binding in dot blot (p157); conditions: tags: His-tag; expressed in E. coli; Pro-Lab Diagnostics; chain copies: 6; label: 32P; linear
Experimental: as §1, §2

[9] = biological target: T1, glutamate dehydrogenase (rGDH, …); experiment: pulldown; no affinity to rGDH; conditions: tags: His-tag; expressed in E. coli; Pro-Lab Diagnostics; chain copies: 6; label: 32P
Experimental: as §1, with “The pull-down assays were conducted in a total volume of 300 μL of 1× binding buffer containing 50 μL of bead-bound rGDH (final concentration ˜50 nM) and 100 μL of 100 nM captamer candidates for 30 min with gentle rotation. In parallel, negative controls consisting of the captamers incubated with uncoated beads were included. Following three” for “Following three”
However, Capt-4 was a new sequence that was not observed in the previous selection. […] In this assay, each captamer candidate was incubated with bare NiMBs or rGDH-coated NiMBs, followed by elution of the bound captamer and radioactivity analysis by dPAGE (FIG. 2a).

Chain of toxin A (TcdA) (P16154 whole entry): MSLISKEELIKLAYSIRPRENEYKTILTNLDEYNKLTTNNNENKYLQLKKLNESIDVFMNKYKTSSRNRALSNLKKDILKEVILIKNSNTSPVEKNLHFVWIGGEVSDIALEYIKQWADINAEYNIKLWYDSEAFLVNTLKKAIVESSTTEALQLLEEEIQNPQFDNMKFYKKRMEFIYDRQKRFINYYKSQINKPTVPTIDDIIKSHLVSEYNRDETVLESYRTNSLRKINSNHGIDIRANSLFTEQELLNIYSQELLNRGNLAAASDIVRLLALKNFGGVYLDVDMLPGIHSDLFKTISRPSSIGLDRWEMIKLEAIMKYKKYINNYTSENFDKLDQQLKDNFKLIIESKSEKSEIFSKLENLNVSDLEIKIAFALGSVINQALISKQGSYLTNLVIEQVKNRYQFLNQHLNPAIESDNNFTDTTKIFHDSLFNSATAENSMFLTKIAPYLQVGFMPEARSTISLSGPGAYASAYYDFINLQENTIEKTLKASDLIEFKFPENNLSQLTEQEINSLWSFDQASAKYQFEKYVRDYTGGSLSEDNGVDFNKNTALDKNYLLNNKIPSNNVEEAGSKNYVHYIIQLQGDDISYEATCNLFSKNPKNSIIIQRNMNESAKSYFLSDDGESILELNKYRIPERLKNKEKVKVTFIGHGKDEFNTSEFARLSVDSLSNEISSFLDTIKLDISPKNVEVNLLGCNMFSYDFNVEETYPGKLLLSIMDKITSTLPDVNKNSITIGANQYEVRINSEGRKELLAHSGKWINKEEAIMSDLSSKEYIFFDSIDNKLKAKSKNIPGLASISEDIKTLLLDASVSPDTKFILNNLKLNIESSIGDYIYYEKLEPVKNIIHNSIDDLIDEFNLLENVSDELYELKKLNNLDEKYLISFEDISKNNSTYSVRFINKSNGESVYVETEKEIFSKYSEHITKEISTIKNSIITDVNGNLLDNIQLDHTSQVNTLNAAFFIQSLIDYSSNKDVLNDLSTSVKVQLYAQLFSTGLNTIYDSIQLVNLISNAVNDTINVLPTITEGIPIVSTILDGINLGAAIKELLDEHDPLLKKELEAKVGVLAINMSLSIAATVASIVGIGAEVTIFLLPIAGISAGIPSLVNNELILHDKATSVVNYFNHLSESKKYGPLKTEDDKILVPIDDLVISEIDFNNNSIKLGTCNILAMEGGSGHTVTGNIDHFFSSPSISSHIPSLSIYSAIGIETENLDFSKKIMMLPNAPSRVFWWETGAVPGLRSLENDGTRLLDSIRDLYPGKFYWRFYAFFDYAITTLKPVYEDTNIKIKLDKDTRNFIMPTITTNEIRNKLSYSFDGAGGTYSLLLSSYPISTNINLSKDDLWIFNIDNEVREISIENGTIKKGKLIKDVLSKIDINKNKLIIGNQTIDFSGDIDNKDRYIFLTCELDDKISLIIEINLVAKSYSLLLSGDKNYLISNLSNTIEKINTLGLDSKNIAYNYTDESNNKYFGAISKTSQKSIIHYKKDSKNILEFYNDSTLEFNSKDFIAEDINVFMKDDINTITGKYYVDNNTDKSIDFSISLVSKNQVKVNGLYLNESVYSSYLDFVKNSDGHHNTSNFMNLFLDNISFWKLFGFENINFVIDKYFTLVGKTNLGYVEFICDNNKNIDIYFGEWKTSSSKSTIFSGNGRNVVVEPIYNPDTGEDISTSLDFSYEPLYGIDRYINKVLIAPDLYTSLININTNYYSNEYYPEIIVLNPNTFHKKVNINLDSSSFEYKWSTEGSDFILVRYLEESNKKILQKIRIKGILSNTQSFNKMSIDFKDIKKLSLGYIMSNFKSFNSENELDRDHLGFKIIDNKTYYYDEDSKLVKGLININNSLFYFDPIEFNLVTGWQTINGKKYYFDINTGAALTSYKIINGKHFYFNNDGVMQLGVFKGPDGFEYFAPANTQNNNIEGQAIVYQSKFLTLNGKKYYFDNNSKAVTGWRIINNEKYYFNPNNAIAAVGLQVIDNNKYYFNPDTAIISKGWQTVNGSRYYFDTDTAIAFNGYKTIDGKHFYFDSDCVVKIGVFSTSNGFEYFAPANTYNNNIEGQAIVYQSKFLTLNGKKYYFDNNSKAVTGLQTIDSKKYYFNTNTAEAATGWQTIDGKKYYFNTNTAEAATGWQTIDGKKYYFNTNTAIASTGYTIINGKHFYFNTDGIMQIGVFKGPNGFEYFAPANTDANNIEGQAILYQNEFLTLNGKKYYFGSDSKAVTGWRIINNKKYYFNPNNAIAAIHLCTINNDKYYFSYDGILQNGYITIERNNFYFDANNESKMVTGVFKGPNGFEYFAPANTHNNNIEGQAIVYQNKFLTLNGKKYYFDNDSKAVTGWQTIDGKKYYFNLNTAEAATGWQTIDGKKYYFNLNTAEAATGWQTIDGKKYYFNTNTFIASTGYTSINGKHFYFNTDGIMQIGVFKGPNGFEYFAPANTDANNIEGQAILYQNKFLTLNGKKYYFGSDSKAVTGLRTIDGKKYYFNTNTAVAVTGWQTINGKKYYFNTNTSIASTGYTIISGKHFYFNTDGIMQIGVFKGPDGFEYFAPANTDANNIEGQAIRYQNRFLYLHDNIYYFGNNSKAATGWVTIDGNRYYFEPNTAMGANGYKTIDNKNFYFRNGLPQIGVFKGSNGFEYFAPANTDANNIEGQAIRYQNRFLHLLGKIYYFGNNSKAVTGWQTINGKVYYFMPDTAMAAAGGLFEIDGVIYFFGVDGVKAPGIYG
Chain of toxin B (TcdB) (P18177 2-2366): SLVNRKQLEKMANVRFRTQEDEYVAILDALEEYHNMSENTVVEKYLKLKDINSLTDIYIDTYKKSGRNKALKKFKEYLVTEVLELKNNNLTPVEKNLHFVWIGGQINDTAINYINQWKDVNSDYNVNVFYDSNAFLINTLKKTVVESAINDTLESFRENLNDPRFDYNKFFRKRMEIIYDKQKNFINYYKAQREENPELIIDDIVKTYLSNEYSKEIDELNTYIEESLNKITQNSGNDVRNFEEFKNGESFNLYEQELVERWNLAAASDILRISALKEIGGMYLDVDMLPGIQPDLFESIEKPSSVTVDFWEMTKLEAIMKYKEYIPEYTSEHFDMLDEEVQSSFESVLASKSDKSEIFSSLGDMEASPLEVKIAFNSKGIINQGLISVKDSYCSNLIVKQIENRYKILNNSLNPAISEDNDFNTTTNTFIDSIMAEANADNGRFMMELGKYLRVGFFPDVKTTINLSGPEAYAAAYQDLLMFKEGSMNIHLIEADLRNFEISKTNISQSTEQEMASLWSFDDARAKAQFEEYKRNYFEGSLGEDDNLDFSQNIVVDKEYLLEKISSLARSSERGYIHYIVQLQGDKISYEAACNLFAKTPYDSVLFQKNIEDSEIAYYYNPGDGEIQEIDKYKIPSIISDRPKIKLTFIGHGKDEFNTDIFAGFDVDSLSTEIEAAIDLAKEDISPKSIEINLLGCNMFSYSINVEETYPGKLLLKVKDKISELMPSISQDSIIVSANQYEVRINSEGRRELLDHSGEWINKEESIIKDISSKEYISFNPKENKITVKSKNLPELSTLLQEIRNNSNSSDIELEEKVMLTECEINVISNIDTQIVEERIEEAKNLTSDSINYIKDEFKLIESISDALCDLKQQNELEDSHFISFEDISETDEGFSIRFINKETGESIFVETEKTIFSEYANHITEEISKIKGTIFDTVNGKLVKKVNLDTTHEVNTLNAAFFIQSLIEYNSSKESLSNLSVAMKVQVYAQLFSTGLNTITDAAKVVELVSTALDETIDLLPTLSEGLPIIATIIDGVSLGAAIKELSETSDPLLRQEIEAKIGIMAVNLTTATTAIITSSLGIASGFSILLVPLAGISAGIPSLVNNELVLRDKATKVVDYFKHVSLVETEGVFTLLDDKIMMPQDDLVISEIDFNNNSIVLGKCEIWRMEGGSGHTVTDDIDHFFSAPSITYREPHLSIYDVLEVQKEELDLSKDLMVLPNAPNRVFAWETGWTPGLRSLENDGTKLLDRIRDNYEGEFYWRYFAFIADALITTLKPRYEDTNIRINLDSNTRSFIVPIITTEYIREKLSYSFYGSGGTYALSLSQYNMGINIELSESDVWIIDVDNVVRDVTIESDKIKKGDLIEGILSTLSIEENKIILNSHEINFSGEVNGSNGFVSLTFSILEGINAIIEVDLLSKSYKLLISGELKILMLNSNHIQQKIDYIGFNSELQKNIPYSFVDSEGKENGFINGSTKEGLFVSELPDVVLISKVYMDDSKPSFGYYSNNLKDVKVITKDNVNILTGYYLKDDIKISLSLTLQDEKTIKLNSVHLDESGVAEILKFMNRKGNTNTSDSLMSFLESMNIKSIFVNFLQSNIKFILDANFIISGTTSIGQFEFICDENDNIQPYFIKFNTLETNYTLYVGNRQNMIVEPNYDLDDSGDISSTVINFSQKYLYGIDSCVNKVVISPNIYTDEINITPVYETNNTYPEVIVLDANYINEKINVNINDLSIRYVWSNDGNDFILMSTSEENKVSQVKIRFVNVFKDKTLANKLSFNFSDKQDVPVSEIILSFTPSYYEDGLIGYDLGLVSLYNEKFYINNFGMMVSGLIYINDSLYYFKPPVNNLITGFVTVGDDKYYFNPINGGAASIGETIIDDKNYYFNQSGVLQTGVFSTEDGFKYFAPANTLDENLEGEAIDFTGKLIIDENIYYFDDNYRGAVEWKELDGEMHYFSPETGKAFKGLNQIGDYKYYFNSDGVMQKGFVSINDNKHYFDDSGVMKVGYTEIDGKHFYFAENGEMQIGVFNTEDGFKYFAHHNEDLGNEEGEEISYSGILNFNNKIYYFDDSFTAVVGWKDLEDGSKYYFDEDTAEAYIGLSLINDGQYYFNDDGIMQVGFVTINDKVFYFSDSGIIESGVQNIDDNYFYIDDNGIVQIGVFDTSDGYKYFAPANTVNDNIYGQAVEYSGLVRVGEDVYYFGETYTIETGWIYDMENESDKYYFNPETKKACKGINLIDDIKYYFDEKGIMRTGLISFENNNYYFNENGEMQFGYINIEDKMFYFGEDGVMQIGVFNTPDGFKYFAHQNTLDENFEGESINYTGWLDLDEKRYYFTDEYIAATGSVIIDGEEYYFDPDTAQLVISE

B1: Capt-2 (ssDNA)
DNA: CAGGTCCATCGAGTGGTAGGAGGAGGTATTTAGTGCCAAGCCATCTCAAACGACGTCTGAGTCGCACTGCTCCTGAACGTAC
[1]
  Kd: 4.4 nM

B2: Lapt-2 (Anti-G1) (ssDNA)
DNA: CAGGTCCATCGAGTGGTAGGAGGAGGTATTTAGTGCCAAGCCATCTCAAACGACGTCTGAGTCGCACTGCTCCTGAACGTAC
[2]
  Kd: 5.6 nM

B3: Anti-G1T1 (ssDNA)
DNA: TAGGAGGAGGTATTTAGTGCCAAGCCATCTCAAACGACGTCTGAGTCGCACTGCTCCTG
[3]
  binding result: binds

B4: Anti-G3 (ssDNA)
DNA: CAGGTCCATCGAGTGGTAGGATGCAGCGGACAGTGTGGGACCATCGCTGCGGATGTATGAATCGCACTGCTCCTGAACGTAC
[4]
  binding result: binds

B5: Anti-G7 (ssDNA)
DNA: CAGGTCCATCGAGTGGTAGGACCCAACCCACGATGCGCAAGAGGAATGCAGCCTACCAGCATCGCACTGCTCCTGAACGTAC
[4]
  binding result: binds

B6: Capt-4 (ssDNA)
DNA: CAGGTCCATCGAGTGGTAGGACGACCCGAATAGTGGCATATCAATGAGTGCTTGTCATCTTTCGCACTGCTCCTGAACGTAC
[5]
  Kd: 2.8 nM
Toxin A (TcdA)
  binding result: no binding
Toxin B (TcdB)
  binding result: no binding
[6]
  binding result: no binding
[7]
  Kd: 12.3 nM

B7: Lapt-4 (ssDNA)
DNA: CAGGTCCATCGAGTGGTAGGACGACCCGAATAGTGGCATATCAATGAGTGCTTGTCATCTTTCGCACTGCTCCTGAACGTAC
[8]
  Kd: 293 nM

B8: Scrambled Capt-2 (ssDNA)
DNA: CGGGAGTACGCATGTATGAGACACCCACGCTATGTCCCTACTATGAGGTGGAGACTTGCTACGTGCATCGCAGATCGGTCAA
[9]
  binding result: no binding

B9: Scrambled Capt-4 (ssDNA)
DNA: GAAGGATTCGGACTAGGATCCGGTCCAACTACCGGTGCCCTAATGGCATCAAAACTGCGTACCGAGCGTGTTTATCTTTCTG
[9]
  binding result: no binding
